Patent US10196454B2, “Anti-PMEL17 antibodies and immunoconjugates” (GENENTECH, INC., priority 2012, dated 2019)

Tests used:
human PMEL17 = test: Monoclonal antibody epitope mapping with PMEL17 deletion mutants (immunoblot, FACS); type: binding; details: N-terminal deletions by immunoblot, C-terminal deletions in 293 cells by FACS
Procedure: All the constructs for epitope mapping were made by PCR amplification of each fragment and subcloning into either pRKtkneo vector with an N-terminal gD tag, or pRKtkneo vector with an N-terminal gD tag and a C-terminal GPI anchor. Transfections were performed using FuGene 6 (Roche Applied Science), and empty vector was used as control. Full-length human PMEL17 was subcloned into pRKtkneo vector with an N-terminal gD tag.
A signal sequence and a gD epitope tag were fused to the N-terminal sequence of a series of deletion mutants, which were then expressed in mammalian cells and the lysates analyzed by immuoblotting for reactivity with 17A9 or 77E6. The N-terminal deletions tested included Δ100, Δ255, Δ292, Δ315, Δ444, Δ515, and Δ567.
In addition, C-terminal deletions with an N-terminal gD tag and a C-terminal GPI anchor were transiently transfected into 293 cells and analyzed for antibody binding by FACS. The C-terminal deletions tested included PMEL1725-125, PMEL1725-105, PMEL1725-85, PMEL1725-65, and PMEL1725-45. Finally, a PMEL17 fragment comprising the region from amino acid 515 through the transmembrane domain, but lacking the cytoplasmic region (“Δ515-C”) and a PMEL17 fragment comprising just the cytoplasmic domain with an N-terminal gD tag and a C-terminal GPI anchor were analyzed by immuoblotting for reactivity with 77E6.

normal human melanocytes [1] = test: Toxicity of anti-PMEL17 ADC in normal melanocytes (CellTiter-GloII, five days); type: cell-based; details: versus SK-MEL-5 and SK-MEL-23, five days
Procedure: Finally, SK-MEL-5 and SK-MEL-23 melanoma cells, or normal human melanocytes, were incubated with serial dilutions of the 17A9 ADC and five days later cell numbers were determined using CellTiter-GloII.

normal human melanocytes [2] = test: Flow cytometry of normal human melanocytes and SK-MEL-5 cells; type: binding; details: intensity comparable to SK-MEL-5
Source text: Normal human melanocytes and SK-MEL-5 melanoma cells were reacted with chimeric 17A9, or no primary antibody, followed by Alexa 488-labeled anti-human IgG and analyzed by flow cytometry.

PMEL17 = biological target: T1, PMEL17 (Homo sapiens, UniProt P40967); test: Immunohistochemistry of human melanoma tissue specimens; set-up: The expression of PMEL17 was evaluated across a panel of human melanoma tissue specimines by immunohistochemistry; from tissue; host or cells: 58 human melanoma specimens (30 primary, 28 metastatic); details: 58 specimens (30 primary, 28 metastatic)
T1 sequence (P40967 25-661): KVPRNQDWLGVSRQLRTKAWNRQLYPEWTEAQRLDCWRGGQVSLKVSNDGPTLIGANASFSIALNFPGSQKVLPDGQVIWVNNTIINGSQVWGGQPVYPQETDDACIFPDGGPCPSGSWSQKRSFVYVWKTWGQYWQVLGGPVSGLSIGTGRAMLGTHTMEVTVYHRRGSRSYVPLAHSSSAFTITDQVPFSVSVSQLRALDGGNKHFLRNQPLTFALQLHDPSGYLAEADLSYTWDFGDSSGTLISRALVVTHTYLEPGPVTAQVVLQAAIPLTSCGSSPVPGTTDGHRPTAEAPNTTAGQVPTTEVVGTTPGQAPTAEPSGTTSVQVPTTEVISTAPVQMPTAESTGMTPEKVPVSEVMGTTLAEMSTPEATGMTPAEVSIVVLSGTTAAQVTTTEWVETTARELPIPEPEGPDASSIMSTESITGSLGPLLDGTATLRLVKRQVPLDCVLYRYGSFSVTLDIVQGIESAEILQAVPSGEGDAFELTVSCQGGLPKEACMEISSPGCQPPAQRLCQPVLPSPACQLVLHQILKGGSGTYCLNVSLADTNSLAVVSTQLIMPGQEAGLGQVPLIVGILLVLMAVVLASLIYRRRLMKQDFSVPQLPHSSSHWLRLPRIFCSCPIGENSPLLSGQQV
Procedure: To assess the potential liability of targeting PMEL17 on normal melanocytes, the level of expression of this target in normal human skin was evaluated by immunohistochemistry. Immunohistochemistry (IHC) was performed on 4 μm thick formalin-fixed paraffin embedded tissue sections mounted on glass slides. All IHC steps were carried out on the Ventana Discovery XT (Ventana Medical Systems; Tucson, Ariz.) autostainer. Pretreatment was done with Cell Conditioner 1, standard time. Primary antibody, PMEL17 clone 31D1 was used at a concentration of 10 μg/ml and was incubated on slides for 1 hour at 37° C. Ventana Mouse OmniMap (Ventana Medical Systems; AZ) was used as the detection system. […]
The expression of PMEL17 was evaluated across a panel of human melanoma tissue specimines by immunohistochemistry substantially as described above, using both 17A9 and 31D1. Staining was scored on an arbitrary scale ranging from zero, for absent, to 3+ for most intense: • 0 (negative): very weak or no staining in >90% of melanoma cells • 1+(mild): predominant staining pattern is weak • 2+(moderate): predominant staining pattern is moderately strong in the majority (>50%) of melanoma cells • 3+(strong): predominant staining pattern is strong in the majority (>50%) of melanoma cells Exemplary staining for each of the levels of the scale is shown in FIG. 7A, left panels.

B1: 17A9 (antibody, listed as Mus musculus, V domains shown)
VH: EVQLQQSGPELVKPGASMKISCKSSGYSFTRYTMNWVKQSHGKNLEWIGVINPYNGGTVYNQKFKGKATLTVDKSSSTAYMELLSLTSEDSAVYYCARTDYDGYAMDYWGQGTSVTVSS
VL: DVQITQSPSYLAASPGETITINCRATKSISKYLAWYQEQPGKTNNLLIYSGSTLQSGIPSRFSGSGSGTDFTLTISSLEPEDFAMYYCQQHNEYPYTFGSGTKLEIK
- binding to PMEL17 deletion mutants (human PMEL17): bound only to PMEL1725-125
- binding to PMEL17 deletion mutants (human PMEL17; listed as 17A6): bound only to full-length PMEL17
- IC50 on normal melanocytes relative to melanoma cell lines (normal human melanocytes [1]): ~100 fold
- FACS staining of cultured normal human melanocytes (normal human melanocytes [2]): FACS+
- human melanoma specimens PMEL17+ when detected with the antibody (PMEL17): 64%
